Data published in patent US20210395372A1 (published 2021).

B1: hOA-DN30-cl04H08 (antibody)
light: DIVLTQSPASLAVSLGERATINCKASQSVDYDGGSYMSWYQQRPGQPPKLLIYAASNLESGVPDRFSGSGSGTDFTLTIHSLQAEDVATYYCQQSYEDPLTFGGGTKVEIKRTVAAPSVFIFPPSDEQLKSGTASVVCLLNNFYPREAKVQWKVDNALQSGNSQESVTEQDSKDSTYSLSSTLTLSKADYEKHKVYACEVTHQGLSSPVTKSFNRGEC
heavy: not shown
chain: not shown
B2: MvDN30 (Fab, V domains shown)
VH: QVQLQQPGTELVKPGASVKLSCKASGYTFTSYWIHWVKQRPGQGLEWIGEINPSSGRTNYNEKFKNKVTVTVDKSSTTAYMQLSNLTSEDSAVYYCASRGYWGQGTTLTVSS
VL: DIVLTQSPASLAVSLGQRATISCKASQSVDYDGGSYMSWFQQRPGQPPKLLISAASNLESGIPARFSGSGSGTDFTLNIHPVEEEDVATYYCQQSYEDPLTFGAGTKVEIK

Target: T1, human Met-Fc chimera (human, UniProt P08581 25-932)
T1 chain: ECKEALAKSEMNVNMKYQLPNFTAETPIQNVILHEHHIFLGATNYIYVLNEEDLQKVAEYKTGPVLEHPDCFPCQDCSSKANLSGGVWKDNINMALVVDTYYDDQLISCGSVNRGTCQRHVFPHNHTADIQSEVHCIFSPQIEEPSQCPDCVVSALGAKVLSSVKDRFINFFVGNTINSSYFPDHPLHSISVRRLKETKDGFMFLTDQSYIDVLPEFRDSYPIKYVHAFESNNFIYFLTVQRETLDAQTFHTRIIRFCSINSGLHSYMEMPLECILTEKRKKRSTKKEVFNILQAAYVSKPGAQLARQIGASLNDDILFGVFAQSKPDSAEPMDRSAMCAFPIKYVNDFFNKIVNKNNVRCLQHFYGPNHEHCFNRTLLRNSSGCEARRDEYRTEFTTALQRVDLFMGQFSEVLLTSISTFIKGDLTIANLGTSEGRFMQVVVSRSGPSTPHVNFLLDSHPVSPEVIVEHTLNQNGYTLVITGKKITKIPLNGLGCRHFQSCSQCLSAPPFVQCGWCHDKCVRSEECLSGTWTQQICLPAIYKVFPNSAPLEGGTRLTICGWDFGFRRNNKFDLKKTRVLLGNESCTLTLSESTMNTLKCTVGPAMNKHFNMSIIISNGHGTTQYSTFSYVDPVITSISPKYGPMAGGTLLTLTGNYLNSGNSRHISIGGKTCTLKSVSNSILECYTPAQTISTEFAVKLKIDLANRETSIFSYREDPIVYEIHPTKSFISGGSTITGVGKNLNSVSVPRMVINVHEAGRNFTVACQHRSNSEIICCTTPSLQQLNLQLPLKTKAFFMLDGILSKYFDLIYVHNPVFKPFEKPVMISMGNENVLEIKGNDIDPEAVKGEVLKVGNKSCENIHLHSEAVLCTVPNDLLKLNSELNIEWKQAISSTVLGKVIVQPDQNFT
Test: ELISA

Binder | Kd
B1 | 0.686 nM
B2 | 0.21 nM
